Data on eight molecules can be found in patent publication US20200297860 (published 2020).

In general, EC50 refers to the midpoint of the concentration-response curve. A low value points to a more potent agent. By Kd is commonly meant the equilibrium constant for the complex coming apart.

Assay [1] has as its target human folate receptor alpha (human). The assay can be described thus: ELISA. (In general: An ELISA detects its analyte on a solid surface through an enzyme-linked reagent.)
Another assay addresses T1, human mesothelin (human, UniProt Q13421).
T1 chain: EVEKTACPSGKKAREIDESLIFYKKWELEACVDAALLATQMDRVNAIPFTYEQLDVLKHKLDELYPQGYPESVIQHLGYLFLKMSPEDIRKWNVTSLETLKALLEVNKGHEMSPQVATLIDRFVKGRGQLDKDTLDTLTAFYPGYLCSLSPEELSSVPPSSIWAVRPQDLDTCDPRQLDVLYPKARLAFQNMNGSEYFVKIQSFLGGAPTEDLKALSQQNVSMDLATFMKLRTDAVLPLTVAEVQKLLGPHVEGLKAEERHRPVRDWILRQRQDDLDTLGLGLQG
Put plainly: SPR. A general note: In SPR one partner is held on a chip, and binding of the other changes the refractive index at the surface.

Sequence of human folate receptor alpha (human) (P15328 whole entry): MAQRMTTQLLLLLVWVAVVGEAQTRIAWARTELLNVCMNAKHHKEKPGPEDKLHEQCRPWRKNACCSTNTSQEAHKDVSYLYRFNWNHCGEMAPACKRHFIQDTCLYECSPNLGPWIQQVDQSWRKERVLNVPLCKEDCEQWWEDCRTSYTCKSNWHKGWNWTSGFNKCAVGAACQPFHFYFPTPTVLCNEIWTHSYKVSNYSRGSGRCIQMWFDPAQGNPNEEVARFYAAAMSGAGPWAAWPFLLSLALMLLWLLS

B1: MORAb003-DBCO-PEG2 eribulin (antibody, V domains shown)
VH: EVQLVESGGGVVQPGRSLRLSCSASGFTFSGYGLSWVRQAPGKGLEWVAMISSGGSYTYYADSVKGRFAISRDNAKNTLFLQMDSLRPEDTGVYFCARHGDDPAWFAYWGQGTPVTVSS
VL: DIQLTQSPSSLSASVGDRVTITCSVSSSISSNNLHWYQQKPGKAPKPWIYGTSNLASGVPSRFSGSGSGTDYTFTISSLQPEDIATYYCQQWSSYPYMYTFGQGTKVEIK
As for B1, the EC50 in assay [1] is 0.0191 µg/mL.

B2: MORAb003-ER1235638 (antibody, V domains shown)
VH: EVQLVESGGGVVQPGRSLRLSCSASGFTFSGYGLSWVRQAPGKGLEWVAMISSGGSYTYYADSVKGRFAISRDNAKNTLFLQMDSLRPEDTGVYFCARHGDDPAWFAYWGQGTPVTVSS
VL: DIQLTQSPSSLSASVGDRVTITCSVSSSISSNNLHWYQQKPGKAPKPWIYGTSNLASGVPSRFSGSGSGTDYTFTISSLQPEDIATYYCQQWSSYPYMYTFGQGTKVEIK
B2 yielded an EC50 in assay [1] of 0.0153 µg/mL.

B3: MORAb003-DBCO-PEG4 VCP eribulin (antibody, V domains shown)
VH: EVQLVESGGGVVQPGRSLRLSCSASGFTFSGYGLSWVRQAPGKGLEWVAMISSGGSYTYYADSVKGRFAISRDNAKNTLFLQMDSLRPEDTGVYFCARHGDDPAWFAYWGQGTPVTVSS
VL: DIQLTQSPSSLSASVGDRVTITCSVSSSISSNNLHWYQQKPGKAPKPWIYGTSNLASGVPSRFSGSGSGTDYTFTISSLQPEDIATYYCQQWSSYPYMYTFGQGTKVEIK
Take B3: in assay [1], a half-maximal effect (EC50) was put at 0.016 µg/mL.

B4: MORAb003-DBCO-PEG4 eribulin (antibody, V domains shown)
VH: EVQLVESGGGVVQPGRSLRLSCSASGFTFSGYGLSWVRQAPGKGLEWVAMISSGGSYTYYADSVKGRFAISRDNAKNTLFLQMDSLRPEDTGVYFCARHGDDPAWFAYWGQGTPVTVSS
VL: DIQLTQSPSSLSASVGDRVTITCSVSSSISSNNLHWYQQKPGKAPKPWIYGTSNLASGVPSRFSGSGSGTDYTFTISSLQPEDIATYYCQQWSSYPYMYTFGQGTKVEIK
In turn, B4 displayed an EC50 in assay [1] of 0.0133 µg/mL.

B5: MORAb003-ER1236941 (antibody, V domains shown)
VH: EVQLVESGGGVVQPGRSLRLSCSASGFTFSGYGLSWVRQAPGKGLEWVAMISSGGSYTYYADSVKGRFAISRDNAKNTLFLQMDSLRPEDTGVYFCARHGDDPAWFAYWGQGTPVTVSS
VL: DIQLTQSPSSLSASVGDRVTITCSVSSSISSNNLHWYQQKPGKAPKPWIYGTSNLASGVPSRFSGSGSGTDYTFTISSLQPEDIATYYCQQWSSYPYMYTFGQGTKVEIK
The molecule B5 gave an EC50 in assay [1] of 0.013 µg/mL.

B6: MORAb003-DBCO-ER1138856 (antibody, V domains shown)
VH: EVQLVESGGGVVQPGRSLRLSCSASGFTFSGYGLSWVRQAPGKGLEWVAMISSGGSYTYYADSVKGRFAISRDNAKNTLFLQMDSLRPEDTGVYFCARHGDDPAWFAYWGQGTPVTVSS
VL: DIQLTQSPSSLSASVGDRVTITCSVSSSISSNNLHWYQQKPGKAPKPWIYGTSNLASGVPSRFSGSGSGTDYTFTISSLQPEDIATYYCQQWSSYPYMYTFGQGTKVEIK
B6: the midpoint of the response in assay [1], the EC50, lay at 0.015 µg/mL.

B7: 111B10-zu (antibody, V domains shown)
VH: EVQLVESGGGLVQPGGSLRLSCAASGFSLNNYAMSWVRQAPGKGLEWIGSISTGGLAFYANWAKGRFTISRDNSKNTLYLQMNSLRAEDTAVYYCARNGGGSYIFYYFDLWGQGTLVTVSS
VL: DIQMTQSPSSLSASVGDRVTITCQASQSISSYLSWYQQKPGKAPKLLIYSASTLASGVPSRFSGSGSGTDFTLTISSLQCEDAATYYCQSYYDIGTSTFGGGTKVEIK
The molecule B7 came in with a Kd with human mesothelin of 6.5 nM.

B8: 346C6-zu (antibody, V domains shown)
VH: EVQLVESGGGLVQPGGSLRLSCAASGFSLSSYAMIWVRQAPGKGLEWIGTISTGGITYYASWAKGRFTISRDNSKNTLYLQMNSLRAEDTAVYYCARGGYAASSAYYLPYYFDLWGQGTLVTVSS
VL: DIQMTQSPSSLSASVGDRVTITCQSSQSVYNNNNLAWYQQKPGKVPKLLIYLASTLASGVPSRFSGSGSGTDFTLTISSLQCEDAATYYCLGGCDDDADTFAFGGGTKVEIK
In turn, B8 returned a Kd with human mesothelin of 8.9 nM.
